Our source for the pKa values is paper PMC12318605.

The target in data set [1] is Asp268 (UniProt position 268, QAVPVDVHMWH). The data set is described as follows: kinetics. The settings on record: 15 °C; 100 mM NaCl; 50 mM citric acid-Na2HPO4; Single-turnover conditions: 10 µM hOGG1(K249H) with 5.0 µM oxoG-containing DNA duplex F-oG23/C23 (substrate-bound enzyme).
Data set [2] concerns the target His249 (UniProt position 249, PGVGTHVADCI). As to the kind of experiment: NMR. As to conditions: 25 °C; 50 mM NaCl; 20 mM sodium phosphate (starting pH 6.8; pH adjusted with HCl or NaOH); 0.1 mM 13C-labelled hOGG1(K249H); no DNA is mentioned in the sample (apparently free enzyme).

For “8-oxoguanine DNA glycosylase 1 (hOGG1), K249H mutant (Homo sapiens; K249H)”, the values for the pKa in data set [1] and in data set [2] were 4.5 ± 0.39 and 5.54 ± 0.05, respectively.

As a reminder, the pKa is the pH at which an ionisable group is half protonated.
